These results are taken from US20250270343A1 (Alector, published 2025).

The labels stand for the following.
B1: anti-GPNMB antibody GPN-95 (antibody, V domains shown)
VH: QVQLVQSGAEVKKPGASVKVSCKASGYTFTSYWMHWVRQAPGQGLEWMGEINPYDQRTNYAQKFQGRVTMTVDKSTSTVYMELSSLRSEDTAVYYCARSTGNYAWFAYWGQGTLVTVSS
VL: DIVMTQSPDSLAVSLGERATINCKTSQDVSPSLAWYQQKPGQPPKLLIYSARYRYTGVPDRFSGSGSGTDFTLTISSLQAEDVAVYYCQQHYSIPLQFGGGTKVEIK
notes: also called PGN-95
B2: anti-GPNMB antibody GPN-97 (antibody, V domains shown)
VH: B1 VH
VL: B1 VL with A51G, R52S, Q97T
B3: anti-GPNMB antibody GPN-96 (antibody, V domains shown)
VH: B1 VH
VL: B1 VL with T25A, S50R, R52S, Q97T
B4: anti-GPNMB antibody GPN-98 (antibody, V domains shown)
VH: B1 VH
VL: B1 VL with T25A, R52S, Q97T
B5: recombinant Fab2 fragment of anti-GPNMB antibody GPN-52 (other)
VH: DVQLQESGPGLVKPSQTVFLTCTVTGISITTGNYRWSWIRQFPGNKLEWIGYIYYSGTITYNPSLTSRITITRDTPKNEFFLEMNSLTAEDTATYYCARDLTHWYFDVWGTGTTVTVSS
VL: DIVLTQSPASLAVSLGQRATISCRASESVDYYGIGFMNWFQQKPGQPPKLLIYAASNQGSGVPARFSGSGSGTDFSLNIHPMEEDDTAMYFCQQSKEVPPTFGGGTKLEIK
notes: also called GPN-52 Fab2

Residue numbers refer to the chain shown, from its start.

One assay concerns the target T1, soluble mouse GPNMB (recombinant extracellular domain) (mouse, UniProt Q99P91 23-502).
T1 construct: also called moGPNMB; not shown: C-terminal polyhistidine or Avi-His tag
T1 sequence: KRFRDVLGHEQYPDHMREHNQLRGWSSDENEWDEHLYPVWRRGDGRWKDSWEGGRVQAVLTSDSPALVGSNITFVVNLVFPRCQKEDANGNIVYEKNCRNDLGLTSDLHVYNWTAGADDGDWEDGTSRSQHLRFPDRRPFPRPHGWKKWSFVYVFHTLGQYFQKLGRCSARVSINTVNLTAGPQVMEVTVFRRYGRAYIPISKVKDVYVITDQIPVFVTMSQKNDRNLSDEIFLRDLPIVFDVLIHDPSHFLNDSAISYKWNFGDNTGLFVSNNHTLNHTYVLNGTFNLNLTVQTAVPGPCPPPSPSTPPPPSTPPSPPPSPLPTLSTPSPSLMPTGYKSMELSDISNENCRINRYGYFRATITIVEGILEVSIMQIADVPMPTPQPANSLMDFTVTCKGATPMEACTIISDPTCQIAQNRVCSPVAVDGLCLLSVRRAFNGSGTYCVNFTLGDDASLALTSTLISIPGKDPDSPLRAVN
In words: SPR Biacore T200, IgG captured on Protein A/G; nb = no binding observed. (SPR reads the build-up and loss of mass on a sensor chip optically.)
With B1, the binding result is listed as “no binding (tested: 300 nM highest analyte concentration)”.

With B2, the binding result is “no binding (tested: 300 nM highest analyte concentration)”.

As to B3, the binding result is reported as “no binding (tested: 300 nM highest analyte concentration)”.

On to B4, for which the binding result is “no binding (tested: 300 nM highest analyte concentration)”.

In another assay the target is T2, full-length untagged human GPNMB expressed on cells (human, UniProt Q14956 23-572).
T2 sequence: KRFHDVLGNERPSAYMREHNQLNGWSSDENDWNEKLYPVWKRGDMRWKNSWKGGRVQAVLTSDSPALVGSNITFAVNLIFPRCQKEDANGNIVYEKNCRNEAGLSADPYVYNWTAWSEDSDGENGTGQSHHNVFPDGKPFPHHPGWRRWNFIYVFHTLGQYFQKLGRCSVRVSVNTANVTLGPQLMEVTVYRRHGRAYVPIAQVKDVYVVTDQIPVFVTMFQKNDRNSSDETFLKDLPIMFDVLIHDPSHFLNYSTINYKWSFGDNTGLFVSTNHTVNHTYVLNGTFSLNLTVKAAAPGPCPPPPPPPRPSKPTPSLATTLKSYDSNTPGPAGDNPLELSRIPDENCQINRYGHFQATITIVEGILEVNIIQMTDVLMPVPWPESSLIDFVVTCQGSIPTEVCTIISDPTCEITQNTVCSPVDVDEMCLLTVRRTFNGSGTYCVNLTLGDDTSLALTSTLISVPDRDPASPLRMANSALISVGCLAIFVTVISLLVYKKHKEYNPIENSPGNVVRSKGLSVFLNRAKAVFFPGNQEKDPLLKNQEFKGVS
In words: cell-based or functional assay.
Take B1: the “EC50 GCase” value was determined as 0.23 nM and the “Fold Increase GCase (max response at 1 µg/ml)” value (from here on “Fold Increase GCase”) stood at 1.33 fold.

Consider B2, for which the “EC50 GCase” value came to 0.22 nM and the “Fold Increase GCase” value came out at 1.36 fold.

On to B3, for which the “EC50 GCase” value is 0.23 nM and the “Fold Increase GCase” value stood at 1.31 fold.

Turning to B4, the “EC50 GCase” value was found to be 0.25 nM and the “Fold Increase GCase” value stood at 1.39 fold.

For the next assay, the target named is T2, full-length untagged human GPNMB …. In words: FACS titration, FS293-huGPNMB+ cells. As for the experimental part: Affinity matured anti-GPNMB antibodies of the present disclosure were examined to determine their ability to bind human and mouse GPNMB expressed on FS293-huGPNMB+ or B16F10 cells, respectively. Cell-based affinity measurements were performed to ascertain the apparent affinities of anti-GPNMB antibodies to cell-surface expressed GPNMB. Serial dilutions of anti-GPNMB antibodies of the present disclosure were added to 100,000 FS293-huGPNMB+ or B16F10 cells and allowed to achieve binding equilibrium at 4° C. After addition of fluorescently labeled secondary antibody and brief washing steps, MFI values as a function of titrated antibody concentration were recorded via FACS analysis. Equilibrium binding curves were fit using nonlinear regression analysis with Graphpad Prism 6 software.
For orientation: EC50 means the concentration at which the effect is half-maximal. B1 gave an EC50 of 0.181 nM.

B2 returned an EC50 of 0.546 nM.

Molecule B3 registered an EC50 of 0.652 nM.

B4 yielded a half-maximal effective concentration (EC50) of 0.407 nM.

The target of another assay is T3, soluble mouse GPNMB-Fc polypeptide (Fc of human IgG1 or mouse IgG2A, not specified for the assay) (mouse, UniProt Q99P91 23-502).
T3 construct: extracellular domain; also called moGPNMB-Fc; mGPNMB; not shown: Fc region of human IgG1 or mouse IgG2A; in the Fab2 assay detected with anti-human IgG1 secondary antibody
T3 sequence (looked up): T1 sequence
In words: FACS, Fab2 blocking moGPNMB-Fc binding to SVEC4-10 cells. As for the experimental part: Purified recombinant Fab2 fragments of select anti-GPNMB antibodies of the present disclosure were produced through transient transfection and purified. Briefly, 2 ug/mL soluble mouse or human GPNMB-Fc diluted in binding buffer was pre-complexed with increasing concentrations of anti-GPNMB Fab2 fragments in 96-well plates. Subsequently, 100,000 SVEC4-10 cells were added per well and incubated on ice for 30 minutes. Soluble moGPNMB-Fc or huGPNMB-Fc bound to cell surface was detected with fluorescent anti-human IgG1 secondary antibody and measured on FACSCanto. IC50 and EC50 values based on changes in MFI values were calculated for each antibody.
As usually defined, the IC50 is the midpoint of a concentration-inhibition curve. A higher IC50 goes with weaker potency. For B5, the IC50 amounted to 3.19 nM.

In a further assay the target is T4, soluble cynomolgus GPNMB (recombinant extracellular domain) (cynomolgus, UniProt Q14956 23-499 (human entry), limits assumed).
T4 chain: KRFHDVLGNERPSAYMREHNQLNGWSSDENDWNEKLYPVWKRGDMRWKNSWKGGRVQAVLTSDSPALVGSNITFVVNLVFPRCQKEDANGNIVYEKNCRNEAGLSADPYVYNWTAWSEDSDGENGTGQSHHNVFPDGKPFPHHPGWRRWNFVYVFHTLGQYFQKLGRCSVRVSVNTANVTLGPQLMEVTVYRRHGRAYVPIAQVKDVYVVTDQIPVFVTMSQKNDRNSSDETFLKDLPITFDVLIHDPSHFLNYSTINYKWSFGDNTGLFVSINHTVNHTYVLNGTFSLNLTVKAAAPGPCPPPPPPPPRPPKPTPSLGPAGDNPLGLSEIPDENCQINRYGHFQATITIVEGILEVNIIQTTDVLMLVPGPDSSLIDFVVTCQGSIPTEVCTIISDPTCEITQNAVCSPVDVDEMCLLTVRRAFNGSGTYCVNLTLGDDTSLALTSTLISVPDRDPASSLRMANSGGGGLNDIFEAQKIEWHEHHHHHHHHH
In words: SPR Biacore, IgG captured. The method, then: (§1) Binding kinetics of the humanized and affinity matured anti-GPNMB antibodies described above were evaluated using the Biacore T200 (Cytiva). Briefly, IgGs were diluted to 10 μg/mL and captured using a Protein A/G (ThermioFisher, #21186) surface on a CM5 chip that was prepared by amine coupling according to the instrument manufacturer's recommendations. The captured antibodies were tested for their ability to bind human, cynomolgus monkey, and mouse GPNMB recombinant proteins as follows.
(§2) Human, cynomolgus, and mouse GPNMB analytes were diluted in running buffer (HBS-EP+, Teknova, #8022, with 0.5 mg/ml BSA, MP Biomedicals LLC, #820451), to a concentration of 300 nM, then diluted 3-fold serially to 100 nM, 33 nM, and 11 nM. Each sample was injected for 2 minutes to allow association, followed by dissociation in buffer alone for 10 minutes. Each sample injection was followed by the regeneration of the chip with three 30-second injections of 10 mM glycine, pH 1.7. Fresh antibody was captured at the beginning of each cycle.
(§3) Data were analyzed using Biacore evaluation software to generate kinetic constants. The equilibrium dissociation constants (KD) were calculated from the fitted association and dissociation rate constants (k-on and k-off) for each of the anti-GPNMB antibodies.
For orientation: Kd means the concentration at which binding is half-saturated. The term koff denotes the first-order rate constant of dissociation. Usually kon stands for the second-order rate constant of association. In the case of B1, the Kd turned out to be 8.3 nM, the koff worked out at 0.0006 s⁻¹ and the kon was determined as 71000 M⁻¹ s⁻¹.

Turning to B2, the Kd came out at 8.2 nM, the koff is 0.00065 s⁻¹ and the on-rate (kon) was 79000 M⁻¹ s⁻¹.

For B3, the Kd stood at 3.2 nM, the koff came to 0.00025 s⁻¹ and the kon was 77000 M⁻¹ s⁻¹.

In the case of B4, the Kd turned out to be 14.6 nM, the koff came out at 0.0011 s⁻¹ and the kon is 74000 M⁻¹ s⁻¹.

The target of a further assay is T5, soluble human GPNMB (recombinant extracellular domain) (human, UniProt Q14956 23-498).
T5 construct: also called huGPNMB; recombinant human GPNMB extracellular domain; not shown: C-terminal polyhistidine or Avi-His tag
T5 sequence: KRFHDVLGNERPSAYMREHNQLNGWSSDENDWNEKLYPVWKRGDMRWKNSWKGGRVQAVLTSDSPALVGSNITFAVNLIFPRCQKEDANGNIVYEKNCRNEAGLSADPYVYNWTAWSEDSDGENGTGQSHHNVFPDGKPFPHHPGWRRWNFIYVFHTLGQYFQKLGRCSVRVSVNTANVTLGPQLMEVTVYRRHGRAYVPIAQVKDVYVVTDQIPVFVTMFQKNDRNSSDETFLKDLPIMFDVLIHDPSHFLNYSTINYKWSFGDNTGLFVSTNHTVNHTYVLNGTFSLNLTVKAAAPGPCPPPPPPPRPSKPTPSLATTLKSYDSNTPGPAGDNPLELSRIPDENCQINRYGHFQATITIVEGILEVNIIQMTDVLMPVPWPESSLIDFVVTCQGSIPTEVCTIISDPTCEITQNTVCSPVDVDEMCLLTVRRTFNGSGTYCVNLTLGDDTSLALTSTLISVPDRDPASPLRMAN
In words: SPR Biacore, IgG captured. As for the experimental part: as §1, §2, §3
As for B1, the Kd stood at 7.3 nM, the koff stood at 0.00053 s⁻¹ and the kon is 73000 M⁻¹ s⁻¹.

For B2, the Kd was found to be 6.7 nM, the koff was found to be 0.00054 s⁻¹ and the kon worked out at 81000 M⁻¹ s⁻¹.

As for B3, the Kd stood at 2.5 nM, the koff is 0.0002 s⁻¹ and the kon worked out at 78000 M⁻¹ s⁻¹.

For B4, the Kd came out at 11.9 nM, the koff came to 0.00091 s⁻¹ and the kon was found to be 76000 M⁻¹ s⁻¹.

The next assay has as its target T2, full-length untagged human GPNMB …. In words: cell-based or functional assay. This is another data set of the same source.
Regarding B1, the “EC50 PDL1” value turned out to be 0.7 nM, the “Fold Increase CD40 (max response at 1 µg/ml)” value (“Fold Increase CD40” for short) was found to be 1.74 fold and the “Fold Increase PDL1 (max response at 1 µg/ml)” value (“Fold Increase PDL1” below) stood at 1.97 fold.

In the case of B2, the “EC50 PDL1” value came out at 0.75 nM, the “Fold Increase CD40” value came to 1.73 fold and the “Fold Increase PDL1” value is 2.05 fold.

For the molecule B3, the “EC50 PDL1” value was 0.58 nM, the “Fold Increase CD40” value came to 1.72 fold and the “Fold Increase PDL1” value was determined as 1.9 fold.

B4: the “EC50 PDL1” value was 1.24 nM, the “Fold Increase CD40” value came to 1.71 fold and the “Fold Increase PDL1” value was 1.97 fold.

For another assay the target is unchanged. In words: cell-based or functional assay. This is another data set of the same source.
On to B1, for which the “Inflammasome: Fold Decrease IL-1β (max response at 0.3 µg/ml)” value (shortened to “Inflammasome: Fold Decrease IL-1β”) is 0.45 fold.

For B2, the “Inflammasome: Fold Decrease IL-1β” value amounted to 0.476 fold.

Regarding B3, the “Inflammasome: Fold Decrease IL-1β” value is 0.525 fold.

Take B4: the “Inflammasome: Fold Decrease IL-1β” value was determined as 0.664 fold.
